Non-standard residues stand in square brackets, D forms with d. No end group written: not given here. Ala(4-thiazolyl) = N[C@@H](Cc1cscn1)C(=O)O; 1Nal = N[C@@H](Cc1cccc2ccccc12)C(=O)O; Nle = CCCC[C@H](N)C(=O)O

Assay in all cases: cell-based or functional assay
The target in assay [1] is T1, human GLP-1 receptor (human, UniProt P43220 24-463).
For assay [2], the target named is T2, human glucagon receptor (human, UniProt P47871 26-477).
Assay [3] has as its target T1, human GLP-1 receptor. This is another data set of the same source.
Assay [4] has as its target T2, human glucagon receptor. This is another data set of the same source.

T2 sequence (P47871 26-477): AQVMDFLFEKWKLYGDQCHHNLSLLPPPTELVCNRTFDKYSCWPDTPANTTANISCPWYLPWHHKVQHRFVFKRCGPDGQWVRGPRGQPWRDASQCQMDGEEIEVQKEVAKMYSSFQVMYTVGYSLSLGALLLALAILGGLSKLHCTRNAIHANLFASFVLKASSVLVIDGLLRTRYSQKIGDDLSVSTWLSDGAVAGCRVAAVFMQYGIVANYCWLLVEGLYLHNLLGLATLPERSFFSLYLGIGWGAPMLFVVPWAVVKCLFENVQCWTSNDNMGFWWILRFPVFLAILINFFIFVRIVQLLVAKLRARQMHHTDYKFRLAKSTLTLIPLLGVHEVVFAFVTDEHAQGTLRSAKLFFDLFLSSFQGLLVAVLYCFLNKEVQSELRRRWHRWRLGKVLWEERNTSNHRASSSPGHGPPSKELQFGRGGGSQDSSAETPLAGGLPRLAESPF

B1: SEQ ID NO: 3 (peptide)
peptide: [Ala(4-thiazolyl)]SQGTFTSDLSKQ[Nle]ESRRAQDFIEWLLATGPESGAPPPS-OH
modifications: N-terminus assumed
SMILES: CCCC[C@H](NC(=O)[C@H](CCC(N)=O)NC(=O)[C@H](CCCCN)NC(=O)[C@H](CO)NC(=O)[C@H](CC(C)C)NC(=O)[C@H](CC(=O)O)NC(=O)[C@H](CO)NC(=O)[C@@H](NC(=O)[C@H](Cc1ccccc1)NC(=O)[C@@H](NC(=O)CNC(=O)[C@H](CCC(N)=O)NC(=O)[C@H](CO)NC(=O)[C@@H](N)Cc1cscn1)[C@@H](C)O)[C@@H](C)O)C(=O)N[C@@H](CCC(=O)O)C(=O)N[C@@H](CO)C(=O)N[C@@H](CCCNC(=N)N)C(=O)N[C@@H](CCCNC(=N)N)C(=O)N[C@@H](C)C(=O)N[C@@H](CCC(N)=O)C(=O)N[C@@H](CC(=O)O)C(=O)N[C@@H](Cc1ccccc1)C(=O)N[C@H](C(=O)N[C@@H](CCC(=O)O)C(=O)N[C@@H](Cc1c[nH]c2ccccc12)C(=O)N[C@@H](CC(C)C)C(=O)N[C@@H](CC(C)C)C(=O)N[C@@H](C)C(=O)N[C@H](C(=O)NCC(=O)N1CCC[C@H]1C(=O)N[C@@H](CCC(=O)O)C(=O)N[C@@H](CO)C(=O)NCC(=O)N[C@@H](C)C(=O)N1CCC[C@H]1C(=O)N1CCC[C@H]1C(=O)N1CCC[C@H]1C(=O)N[C@@H](CO)C(=O)O)[C@@H](C)O)[C@@H](C)CC
Turning to B1, the “EC50 hGLP-1 R [pM], cAMP formation” value with human GLP-1 receptor [1] was found to be 44300 pM. Besides, in the assay with human glucagon receptor [2], the “EC50 hGLUC R [pM], cAMP formation” value worked out at 1.8 pM. In addition, the “EC50 hGLP-1R, cAMP formation” value with human GLP-1 receptor [3] was found to be 44.3 nM. Further, the “EC50 hGlucagon-R, cAMP formation” value in the assay with human glucagon receptor [4] is 0.0018 nM.

B2: SEQ ID NO: 12 (peptide)
peptide: [Ala(4-thiazolyl)]SQGTFTSDLSKQLESRRAQEFIEWLLATGPESGAPPPS-OH
modifications: N-terminus assumed
SMILES: CC[C@H](C)[C@H](NC(=O)[C@H](Cc1ccccc1)NC(=O)[C@H](CCC(=O)O)NC(=O)[C@H](CCC(N)=O)NC(=O)[C@H](C)NC(=O)[C@H](CCCNC(=N)N)NC(=O)[C@H](CCCNC(=N)N)NC(=O)[C@H](CO)NC(=O)[C@H](CCC(=O)O)NC(=O)[C@H](CC(C)C)NC(=O)[C@H](CCC(N)=O)NC(=O)[C@H](CCCCN)NC(=O)[C@H](CO)NC(=O)[C@H](CC(C)C)NC(=O)[C@H](CC(=O)O)NC(=O)[C@H](CO)NC(=O)[C@@H](NC(=O)[C@H](Cc1ccccc1)NC(=O)[C@@H](NC(=O)CNC(=O)[C@H](CCC(N)=O)NC(=O)[C@H](CO)NC(=O)[C@@H](N)Cc1cscn1)[C@@H](C)O)[C@@H](C)O)C(=O)N[C@@H](CCC(=O)O)C(=O)N[C@@H](Cc1c[nH]c2ccccc12)C(=O)N[C@@H](CC(C)C)C(=O)N[C@@H](CC(C)C)C(=O)N[C@@H](C)C(=O)N[C@H](C(=O)NCC(=O)N1CCC[C@H]1C(=O)N[C@@H](CCC(=O)O)C(=O)N[C@@H](CO)C(=O)NCC(=O)N[C@@H](C)C(=O)N1CCC[C@H]1C(=O)N1CCC[C@H]1C(=O)N1CCC[C@H]1C(=O)N[C@@H](CO)C(=O)O)[C@@H](C)O
For B2, in the assay with human GLP-1 receptor [1], the “EC50 hGLP-1 R [pM], cAMP formation” value worked out at 20000 pM. Also, the “EC50 hGLUC R [pM], cAMP formation” value with human glucagon receptor [2] worked out at 1 pM. Moreover, the “EC50 hGLP-1R, cAMP formation” value with human GLP-1 receptor [3] stood at 20 nM. For the same molecule, the “EC50 hGlucagon-R, cAMP formation” value with human glucagon receptor [4] turned out to be 0.001 nM.

B3: SEQ ID NO: 11 (peptide)
peptide: [Ala(4-thiazolyl)]SQGTFTSD[1Nal]SKQLESRRAQEFIEWLLATGPESGAPPPS-OH
modifications: N-terminus assumed
SMILES: CC[C@H](C)[C@H](NC(=O)[C@H](Cc1ccccc1)NC(=O)[C@H](CCC(=O)O)NC(=O)[C@H](CCC(N)=O)NC(=O)[C@H](C)NC(=O)[C@H](CCCNC(=N)N)NC(=O)[C@H](CCCNC(=N)N)NC(=O)[C@H](CO)NC(=O)[C@H](CCC(=O)O)NC(=O)[C@H](CC(C)C)NC(=O)[C@H](CCC(N)=O)NC(=O)[C@H](CCCCN)NC(=O)[C@H](CO)NC(=O)[C@H](Cc1cccc2ccccc12)NC(=O)[C@H](CC(=O)O)NC(=O)[C@H](CO)NC(=O)[C@@H](NC(=O)[C@H](Cc1ccccc1)NC(=O)[C@@H](NC(=O)CNC(=O)[C@H](CCC(N)=O)NC(=O)[C@H](CO)NC(=O)[C@@H](N)Cc1cscn1)[C@@H](C)O)[C@@H](C)O)C(=O)N[C@@H](CCC(=O)O)C(=O)N[C@@H](Cc1c[nH]c2ccccc12)C(=O)N[C@@H](CC(C)C)C(=O)N[C@@H](CC(C)C)C(=O)N[C@@H](C)C(=O)N[C@H](C(=O)NCC(=O)N1CCC[C@H]1C(=O)N[C@@H](CCC(=O)O)C(=O)N[C@@H](CO)C(=O)NCC(=O)N[C@@H](C)C(=O)N1CCC[C@H]1C(=O)N1CCC[C@H]1C(=O)N1CCC[C@H]1C(=O)N[C@@H](CO)C(=O)O)[C@@H](C)O
For the molecule B3, the “EC50 hGLP-1 R [pM], cAMP formation” value in the assay with human GLP-1 receptor [1] worked out at 11700 pM. Besides, the “EC50 hGLUC R [pM], cAMP formation” value with human glucagon receptor [2] amounted to 0.9 pM. Further, in the assay with human GLP-1 receptor [3], the “EC50 hGLP-1R, cAMP formation” value turned out to be 11.7 nM. The “EC50 hGlucagon-R, cAMP formation” value with human glucagon receptor [4] came to 0.0009 nM.

B4: SEQ ID NO: 15 (peptide)
peptide: [Ala(4-thiazolyl)]SQGTFTSDLSKQLESRRAQDFIEWLLATGPESGAPPPS-OH
modifications: N-terminus assumed
SMILES: CC[C@H](C)[C@H](NC(=O)[C@H](Cc1ccccc1)NC(=O)[C@H](CC(=O)O)NC(=O)[C@H](CCC(N)=O)NC(=O)[C@H](C)NC(=O)[C@H](CCCNC(=N)N)NC(=O)[C@H](CCCNC(=N)N)NC(=O)[C@H](CO)NC(=O)[C@H](CCC(=O)O)NC(=O)[C@H](CC(C)C)NC(=O)[C@H](CCC(N)=O)NC(=O)[C@H](CCCCN)NC(=O)[C@H](CO)NC(=O)[C@H](CC(C)C)NC(=O)[C@H](CC(=O)O)NC(=O)[C@H](CO)NC(=O)[C@@H](NC(=O)[C@H](Cc1ccccc1)NC(=O)[C@@H](NC(=O)CNC(=O)[C@H](CCC(N)=O)NC(=O)[C@H](CO)NC(=O)[C@@H](N)Cc1cscn1)[C@@H](C)O)[C@@H](C)O)C(=O)N[C@@H](CCC(=O)O)C(=O)N[C@@H](Cc1c[nH]c2ccccc12)C(=O)N[C@@H](CC(C)C)C(=O)N[C@@H](CC(C)C)C(=O)N[C@@H](C)C(=O)N[C@H](C(=O)NCC(=O)N1CCC[C@H]1C(=O)N[C@@H](CCC(=O)O)C(=O)N[C@@H](CO)C(=O)NCC(=O)N[C@@H](C)C(=O)N1CCC[C@H]1C(=O)N1CCC[C@H]1C(=O)N1CCC[C@H]1C(=O)N[C@@H](CO)C(=O)O)[C@@H](C)O
On to B4, for which the “EC50 hGLP-1 R [pM], cAMP formation” value with human GLP-1 receptor [1] amounted to 34500 pM. Moreover, in the assay with human glucagon receptor [2], the “EC50 hGLUC R [pM], cAMP formation” value amounted to 2.2 pM. Moreover, the “EC50 hGLP-1R, cAMP formation” value with human GLP-1 receptor [3] is 34.5 nM. The “EC50 hGlucagon-R, cAMP formation” value with human glucagon receptor [4] turned out to be 0.0022 nM.

B5: SEQ ID NO: 16 (peptide)
peptide: [Ala(4-thiazolyl)]SQGTFTSDLSKQ[Nle]ESRRAQEFIEWLLATGPESGAPPPS-OH
modifications: N-terminus assumed
SMILES: CCCC[C@H](NC(=O)[C@H](CCC(N)=O)NC(=O)[C@H](CCCCN)NC(=O)[C@H](CO)NC(=O)[C@H](CC(C)C)NC(=O)[C@H](CC(=O)O)NC(=O)[C@H](CO)NC(=O)[C@@H](NC(=O)[C@H](Cc1ccccc1)NC(=O)[C@@H](NC(=O)CNC(=O)[C@H](CCC(N)=O)NC(=O)[C@H](CO)NC(=O)[C@@H](N)Cc1cscn1)[C@@H](C)O)[C@@H](C)O)C(=O)N[C@@H](CCC(=O)O)C(=O)N[C@@H](CO)C(=O)N[C@@H](CCCNC(=N)N)C(=O)N[C@@H](CCCNC(=N)N)C(=O)N[C@@H](C)C(=O)N[C@@H](CCC(N)=O)C(=O)N[C@@H](CCC(=O)O)C(=O)N[C@@H](Cc1ccccc1)C(=O)N[C@H](C(=O)N[C@@H](CCC(=O)O)C(=O)N[C@@H](Cc1c[nH]c2ccccc12)C(=O)N[C@@H](CC(C)C)C(=O)N[C@@H](CC(C)C)C(=O)N[C@@H](C)C(=O)N[C@H](C(=O)NCC(=O)N1CCC[C@H]1C(=O)N[C@@H](CCC(=O)O)C(=O)N[C@@H](CO)C(=O)NCC(=O)N[C@@H](C)C(=O)N1CCC[C@H]1C(=O)N1CCC[C@H]1C(=O)N1CCC[C@H]1C(=O)N[C@@H](CO)C(=O)O)[C@@H](C)O)[C@@H](C)CC
For the molecule B5, the “EC50 hGLP-1 R [pM], cAMP formation” value in the assay with human GLP-1 receptor [1] came out at 19700 pM. In addition, the “EC50 hGLUC R [pM], cAMP formation” value with human glucagon receptor [2] is 0.9 pM. Also, the “EC50 hGLP-1R, cAMP formation” value with human GLP-1 receptor [3] is 19.7 nM. The “EC50 hGlucagon-R, cAMP formation” value with human glucagon receptor [4] was found to be 0.0009 nM.

B6: SEQ ID NO: 4 (peptide)
peptide: [Ala(4-thiazolyl)]SQGTFTSDLSKQLESRRAQEFIEWLLAGGPESGAPPPS-OH
modifications: N-terminus assumed
SMILES: CC[C@H](C)[C@H](NC(=O)[C@H](Cc1ccccc1)NC(=O)[C@H](CCC(=O)O)NC(=O)[C@H](CCC(N)=O)NC(=O)[C@H](C)NC(=O)[C@H](CCCNC(=N)N)NC(=O)[C@H](CCCNC(=N)N)NC(=O)[C@H](CO)NC(=O)[C@H](CCC(=O)O)NC(=O)[C@H](CC(C)C)NC(=O)[C@H](CCC(N)=O)NC(=O)[C@H](CCCCN)NC(=O)[C@H](CO)NC(=O)[C@H](CC(C)C)NC(=O)[C@H](CC(=O)O)NC(=O)[C@H](CO)NC(=O)[C@@H](NC(=O)[C@H](Cc1ccccc1)NC(=O)[C@@H](NC(=O)CNC(=O)[C@H](CCC(N)=O)NC(=O)[C@H](CO)NC(=O)[C@@H](N)Cc1cscn1)[C@@H](C)O)[C@@H](C)O)C(=O)N[C@@H](CCC(=O)O)C(=O)N[C@@H](Cc1c[nH]c2ccccc12)C(=O)N[C@@H](CC(C)C)C(=O)N[C@@H](CC(C)C)C(=O)N[C@@H](C)C(=O)NCC(=O)NCC(=O)N1CCC[C@H]1C(=O)N[C@@H](CCC(=O)O)C(=O)N[C@@H](CO)C(=O)NCC(=O)N[C@@H](C)C(=O)N1CCC[C@H]1C(=O)N1CCC[C@H]1C(=O)N1CCC[C@H]1C(=O)N[C@@H](CO)C(=O)O
For B6, the “EC50 hGLP-1 R [pM], cAMP formation” value with human GLP-1 receptor [1] is 3300 pM. The “EC50 hGLUC R [pM], cAMP formation” value in the assay with human glucagon receptor [2] is 0.7 pM. In addition, in the assay with human GLP-1 receptor [3], the “EC50 hGLP-1R, cAMP formation” value came to 3.3 nM. Also, the “EC50 hGlucagon-R, cAMP formation” value with human glucagon receptor [4] is 0.0007 nM.
